Data: US9388387B2, “Differentiation of human embryonic stem cells” (Janssen Biotech, Inc., priority 2008, dated 2016)

System: cells of the human embryonic stem cell line H1 differentiated to stage 6
Assay: Real-time PCR gene expression profile of stage 6 cultures +/- activin A, enriched using a 40 μm filter
Format: cell-based
Settings: 10 ng/ml activin A added at stage 6 for seven days, H1 cells passage 43, FIG. 4 panels a-f
Procedure: (1:30 dilution) coated dishes and exposed to RPMI medium supplemented with 2% BSA (Catalog#152401, MP Biomedical, Ohio), and 100 ng/ml activin A (R&D Systems, MN) plus 20 ng/ml WNT-3a (Catalog#1324-WN-002, R&D Systems, MN) plus 8 ng/ml of bFGF (Catalog#100-18B, PeproTech, NJ), for one day followed by treatment with RPMI media supplemented with 2% BSA and 100 ng/ml activin A plus 8 ng/ml of bFGF for an additional two days. Next the cultures were treated with DMEM/F12+2% BSA+50 ng/ml FGF7+0.25 μM Cyclopamine-KAAD (#239804, Calbiochem, CA) for two days, followed by four days incubation in DMEM/F12+1% B27 (Invitrogen, CA)+50 ng/ml FGF7+0.25 μM Cyclopamine-KAAD+2 μM Retinoic acid (RA) (Sigma, MO)+100 ng/ml of Noggin (R & D Systems, MN).
Cells were differentiated into pancreatic endocrine cells by incubating the cells in DMEM/F12+1% B27 (Invitrogen, CA)+100 ng/ml Noggin+1 μM DAPT (a gamma-secretase inhibitor) (Catalog#565784, Calbiochem, CA)+1 μM ALK5 inhibitor II (Catalog#616452, Calbiochem, Ca)+100 ng/ml of Netrin-4 (R&D Systems, MN) for three days followed by additional seven days incubation in DMEM/F12+1% B27 (Invitrogen, CA)+1 μM ALK5 inhibitor II (Calbiochem, Ca). […] At each stage cell number was calculated using a hemocytometer and RNA was collected for PCR analysis. […]

B1: activin A: a member of the TGF-β superfamily; TGF-β receptor agonist (R&D Systems, MN) (protein, UniProt P08476 311-426, looked up)
Inhibin beta A chain: GLECDGKVNICCKKQFFVSFKDIGWNDWIIAPSGYHANYCEGECPSHIAGTSGSSLSFHSTVINHYRMRGHSPFANLKSCCVPTKLRPMSMLYYDDGQNIIKKDIQNMIVEECGCS
expression of pancreatic endocrine markers (pdx-1, nkx6-1, Pax4, nkx2.2, insulin, glucagon): significantly boosted expression of all key pancreatic endocrine markers
